The target in data set [1] is T1, bed-3 (F25H8.6) (Caenorhabditis elegans) (UniProt Q19787).
T1 sequence: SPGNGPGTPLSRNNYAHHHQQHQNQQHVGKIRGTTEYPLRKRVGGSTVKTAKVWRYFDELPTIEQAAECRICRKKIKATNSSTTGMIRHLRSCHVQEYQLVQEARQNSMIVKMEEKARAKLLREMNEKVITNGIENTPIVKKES

Data set [2] deals with T2, ztf-27 (T09F3.1) (Caenorhabditis elegans) (UniProt G5EDA0).
T2 sequence: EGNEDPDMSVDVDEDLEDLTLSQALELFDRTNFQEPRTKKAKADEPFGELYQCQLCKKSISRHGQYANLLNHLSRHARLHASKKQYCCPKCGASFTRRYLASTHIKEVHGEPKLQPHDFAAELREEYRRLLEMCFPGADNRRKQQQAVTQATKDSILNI

For data set [3], the target named is T3, F55C5.11 (F55C5.11) (Caenorhabditis elegans) (UniProt Q1ZXU0).
T3 sequence: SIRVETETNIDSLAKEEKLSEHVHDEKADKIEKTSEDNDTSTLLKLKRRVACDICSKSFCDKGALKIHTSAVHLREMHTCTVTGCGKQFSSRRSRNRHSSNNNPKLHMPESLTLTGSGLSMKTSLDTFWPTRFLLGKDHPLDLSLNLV

In data set [4] the target is T4, M03D4.4 (M03D4.4) (Caenorhabditis elegans) (UniProt Q21494).
T4 sequence: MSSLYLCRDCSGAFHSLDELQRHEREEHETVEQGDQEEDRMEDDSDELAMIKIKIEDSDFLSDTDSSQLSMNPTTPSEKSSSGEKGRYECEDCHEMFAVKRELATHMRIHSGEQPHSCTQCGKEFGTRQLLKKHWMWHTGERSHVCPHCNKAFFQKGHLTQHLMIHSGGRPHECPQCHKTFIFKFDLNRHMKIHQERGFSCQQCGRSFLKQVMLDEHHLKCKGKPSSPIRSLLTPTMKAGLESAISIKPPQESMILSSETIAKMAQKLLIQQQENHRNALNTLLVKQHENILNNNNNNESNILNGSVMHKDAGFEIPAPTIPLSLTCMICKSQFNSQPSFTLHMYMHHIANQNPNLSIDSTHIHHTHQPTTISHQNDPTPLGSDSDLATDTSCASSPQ

Data set [5] addresses atf-7 (C07G2.2) (Caenorhabditis elegans) (UniProt Q86MD3).
For data set [6], the target named is T5, K11D2.4 (K11D2.4) (Caenorhabditis elegans) (UniProt G5EBU1).
T5 sequence: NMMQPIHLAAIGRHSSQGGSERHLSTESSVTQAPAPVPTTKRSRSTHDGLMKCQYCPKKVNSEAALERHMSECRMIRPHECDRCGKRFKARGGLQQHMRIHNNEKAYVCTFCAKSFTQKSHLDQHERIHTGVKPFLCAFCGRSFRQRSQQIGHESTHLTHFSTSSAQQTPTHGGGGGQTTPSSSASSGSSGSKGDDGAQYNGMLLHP

The results in this text go back to publication PMC4434323.

Chain of atf-7 (C07G2.2) (Caenorhabditis elegans) (Q86MD3 339-508): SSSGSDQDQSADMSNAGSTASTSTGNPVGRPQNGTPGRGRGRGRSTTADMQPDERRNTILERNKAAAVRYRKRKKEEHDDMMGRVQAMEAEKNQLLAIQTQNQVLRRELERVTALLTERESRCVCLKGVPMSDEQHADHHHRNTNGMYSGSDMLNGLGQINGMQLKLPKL

For the sequence “CTCGAGAC (double strand) [8-mer CTCGAGAC]”, the binding signal (PBM E-score (-0.5 to 0.5)) in data set [1] came to 0.497.

In the case of “AATGGTGT (double strand) [8-mer AATGGTGT]”, the binding signal (PBM E-score (-0.5 to 0.5)) in data set [2] turned out to be 0.477.

“GATCCCGA (double strand) [8-mer GATCCCGA]”: the binding signal (PBM E-score (-0.5 to 0.5)) in data set [1] was 0.49. Turning to “TACACCCA (double strand) [8-mer TACACCCA]”, the binding signal (PBM E-score (-0.5 to 0.5)) in data set [2] was 0.477. Same read-out and setting: as for “ACACCATA (double strand) [8-mer ACACCATA]”, the figure is 0.479. “GGTGACAA (double strand) [8-mer GGTGACAA]”: the binding signal (PBM E-score (-0.5 to 0.5)) in data set [3] is 0.487. Sequence “TCCCGAGA (double strand) [8-mer TCCCGAGA]” came in with a binding signal (PBM E-score (-0.5 to 0.5)) in data set [1] of 0.493. Take “GGTGTCAC (double strand) [8-mer GGTGTCAC]”: the binding signal (PBM E-score (-0.5 to 0.5)) in data set [3] turned out to be 0.486. Same read-out and setting: as for “GTGTGACA (double strand) [8-mer GTGTGACA]”, the figure is 0.486. As for “ACACCAAT (double strand) [8-mer ACACCAAT]”, the binding signal (PBM E-score (-0.5 to 0.5)) in data set [2] came to 0.478. Regarding “ATGCATGA (double strand) [8-mer ATGCATGA]”, the binding signal (PBM E-score (-0.5 to 0.5)) in data set [4] was 0.499. “ATCATGCA (double strand) [8-mer ATCATGCA]” had a binding signal (PBM E-score (-0.5 to 0.5)) in data set [4] of 0.497. “CTGTCACC (double strand) [8-mer CTGTCACC]” yielded a binding signal (PBM E-score (-0.5 to 0.5)) in data set [3] of 0.487. For the sequence “ACGCATGA (double strand) [8-mer ACGCATGA]”, in data set [4], the binding signal (PBM E-score (-0.5 to 0.5)) is 0.495. As to “ATACGTCA (double strand) [8-mer ATACGTCA]”, the binding signal (PBM E-score (-0.5 to 0.5)) in data set [5] is 0.494. Same read-out and setting: as for “CACGTCAC (double strand) [8-mer CACGTCAC]”, the figure is 0.496. In turn, “GTGACAAA (double strand) [8-mer GTGACAAA]” returned a binding signal (PBM E-score (-0.5 to 0.5)) in data set [3] of 0.484.

The sequence “TGCGCCAA (double strand) [8-mer TGCGCCAA]” registered a binding signal (PBM E-score (-0.5 to 0.5)) in data set [2] of 0.478. For “CGAAAAAA (double strand) [8-mer CGAAAAAA]”, the binding signal (PBM E-score (-0.5 to 0.5)) in data set [6] is 0.495. With “ATGGTGTG (double strand) [8-mer ATGGTGTG]”, the binding signal (PBM E-score (-0.5 to 0.5)) in data set [2] was 0.477. Still for that read-out and setting: as for “TACGCCAA (double strand) [8-mer TACGCCAA]”, the figure is 0.48.

As to “AGTCTCGA (double strand) [8-mer AGTCTCGA]”, in data set [1], the binding signal (PBM E-score (-0.5 to 0.5)) stood at 0.494.

Sequence “TGTGACAA (double strand) [8-mer TGTGACAA]” came in with a binding signal (PBM E-score (-0.5 to 0.5)) in data set [3] of 0.485. With “TCCATGCA (double strand) [8-mer TCCATGCA]”, in data set [4], the binding signal (PBM E-score (-0.5 to 0.5)) came out at 0.491. Regarding “GTGCACCA (double strand) [8-mer GTGCACCA]”, the binding signal (PBM E-score (-0.5 to 0.5)) in data set [2] came out at 0.484.

In data set [1], “GCTCTCGA (double strand) [8-mer GCTCTCGA]” came in with a binding signal (PBM E-score (-0.5 to 0.5)) of 0.491. In data set [3], “ATGTGACA (double strand) [8-mer ATGTGACA]” displayed a binding signal (PBM E-score (-0.5 to 0.5)) of 0.489. On to “AAAAAACA (double strand) [8-mer AAAAAACA]”, for which the binding signal (PBM E-score (-0.5 to 0.5)) in data set [6] was found to be 0.495.

As to “AAAAAAGA (double strand) [8-mer AAAAAAGA]”, the binding signal (PBM E-score (-0.5 to 0.5)) in data set [6] amounted to 0.495. With “GATCATGC (double strand) [8-mer GATCATGC]”, in data set [4], the binding signal (PBM E-score (-0.5 to 0.5)) came out at 0.493. Consider “CCTCGAGA (double strand) [8-mer CCTCGAGA]”, for which the binding signal (PBM E-score (-0.5 to 0.5)) in data set [1] is 0.492. “TGGTGACA (double strand) [8-mer TGGTGACA]” gave a binding signal (PBM E-score (-0.5 to 0.5)) in data set [3] of 0.487. The sequence “GTGCATGA (double strand) [8-mer GTGCATGA]” showed a binding signal (PBM E-score (-0.5 to 0.5)) in data set [4] of 0.494. In data set [2], “ATGGTGCA (double strand) [8-mer ATGGTGCA]” registered a binding signal (PBM E-score (-0.5 to 0.5)) of 0.487. On to “CTCGAGAA (double strand) [8-mer CTCGAGAA]”, for which, in data set [1], the binding signal (PBM E-score (-0.5 to 0.5)) was determined as 0.491. As for “TACACCAA (double strand) [8-mer TACACCAA]”, the binding signal (PBM E-score (-0.5 to 0.5)) in data set [2] was determined as 0.483. In the case of “TCATGCAA (double strand) [8-mer TCATGCAA]”, in data set [4], the binding signal (PBM E-score (-0.5 to 0.5)) came to 0.493.

For “GTCATGCA (double strand) [8-mer GTCATGCA]”, in data set [4], the binding signal (PBM E-score (-0.5 to 0.5)) is 0.495. In data set [4], “CGCATGAA (double strand) [8-mer CGCATGAA]” displayed a binding signal (PBM E-score (-0.5 to 0.5)) of 0.491. In data set [5], “ACGTCACT (double strand) [8-mer ACGTCACT]” displayed a binding signal (PBM E-score (-0.5 to 0.5)) of 0.496. Sequence “GGTCTCGA (double strand) [8-mer GGTCTCGA]” gave a binding signal (PBM E-score (-0.5 to 0.5)) in data set [1] of 0.491.

For “CTCGAGAG (double strand) [8-mer CTCGAGAG]”, the binding signal (PBM E-score (-0.5 to 0.5)) in data set [1] was determined as 0.493. As to “TCCCGGGA (double strand) [8-mer TCCCGGGA]”, the binding signal (PBM E-score (-0.5 to 0.5)) in data set [1] was 0.491. Turning to “ACGTCACC (double strand) [8-mer ACGTCACC]”, in data set [5], the binding signal (PBM E-score (-0.5 to 0.5)) was 0.496. As to “GATCTCGA (double strand) [8-mer GATCTCGA]”, the binding signal (PBM E-score (-0.5 to 0.5)) in data set [1] was determined as 0.493. In the case of “CGGTGACA (double strand) [8-mer CGGTGACA]”, in data set [3], the binding signal (PBM E-score (-0.5 to 0.5)) was 0.488. With “AATAAAAA (double strand) [8-mer AATAAAAA]”, in data set [6], the binding signal (PBM E-score (-0.5 to 0.5)) turned out to be 0.496.

In data set [4], “ACATGCAT (double strand) [8-mer ACATGCAT]” returned a binding signal (PBM E-score (-0.5 to 0.5)) of 0.491. In turn, “GGGTGACA (double strand) [8-mer GGGTGACA]” yielded a binding signal (PBM E-score (-0.5 to 0.5)) in data set [3] of 0.494. In data set [4], “ATGCATGC (double strand) [8-mer ATGCATGC]” registered a binding signal (PBM E-score (-0.5 to 0.5)) of 0.491. The sequence “GTGTCACA (double strand) [8-mer GTGTCACA]” displayed a binding signal (PBM E-score (-0.5 to 0.5)) in data set [3] of 0.488. Take “ACTCCCGA (double strand) [8-mer ACTCCCGA]”: the binding signal (PBM E-score (-0.5 to 0.5)) in data set [1] was 0.49. As to “TCTCGAGA (double strand) [8-mer TCTCGAGA]”, in data set [1], the binding signal (PBM E-score (-0.5 to 0.5)) is 0.499.

In data set [4], “TGCATGAA (double strand) [8-mer TGCATGAA]” yielded a binding signal (PBM E-score (-0.5 to 0.5)) of 0.495. For the sequence “AGGTGACA (double strand) [8-mer AGGTGACA]”, in data set [3], the binding signal (PBM E-score (-0.5 to 0.5)) worked out at 0.486. In the case of “ACTCTCGA (double strand) [8-mer ACTCTCGA]”, in data set [1], the binding signal (PBM E-score (-0.5 to 0.5)) was 0.49.

The sequence “ACAAAAAA (double strand) [8-mer ACAAAAAA]” showed a binding signal (PBM E-score (-0.5 to 0.5)) in data set [6] of 0.494. Consider “AGTGTCAC (double strand) [8-mer AGTGTCAC]”, for which the binding signal (PBM E-score (-0.5 to 0.5)) in data set [3] worked out at 0.487. “CATGCATG (double strand) [8-mer CATGCATG]” came in with a binding signal (PBM E-score (-0.5 to 0.5)) in data set [4] of 0.498.

Sequence “GGTGACAC (double strand) [8-mer GGTGACAC]” showed a binding signal (PBM E-score (-0.5 to 0.5)) in data set [3] of 0.496. The sequence “GCATGGAA (double strand) [8-mer GCATGGAA]” came in with a binding signal (PBM E-score (-0.5 to 0.5)) in data set [4] of 0.491. Still for that read-out and setting: as for “AATGCATG (double strand) [8-mer AATGCATG]”, the figure is 0.494.

“AAAAAAGT (double strand) [8-mer AAAAAAGT]” returned a binding signal (PBM E-score (-0.5 to 0.5)) in data set [6] of 0.494.

“ATCTCGAG (double strand) [8-mer ATCTCGAG]”: the binding signal (PBM E-score (-0.5 to 0.5)) in data set [1] came to 0.497.
